Reference: publication PMC9750158

Assays:
GST-Rac1^QP = GST-Rac1^QP (UniProt P63000); assay: pull-down
GST-Arf1 (Arf1^∆N17) = GST-Arf1 (Arf1^∆N17) (UniProt P84077); assay: pull-down
Chain of GST-Arf1 (Arf1^∆N17) (P84077 18-181): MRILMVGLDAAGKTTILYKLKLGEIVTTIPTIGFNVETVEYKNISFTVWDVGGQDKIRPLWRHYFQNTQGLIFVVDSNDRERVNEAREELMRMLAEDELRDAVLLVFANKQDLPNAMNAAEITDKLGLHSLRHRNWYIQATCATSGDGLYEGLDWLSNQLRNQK

Substance	Kd (GST-Rac1^QP) [µM]	Kd (GST-Arf1 (Arf1^∆N17)) [µM]
WRC with Sra1^Y967A (D site disrupted) (from UniProt Q7L576;Q9Y2A7;Q92558;Q9NYB9;Q8WUW1) (complex)	2	–
∆WRC230^D-Rac1 (Rac1 tethered to the C terminus of Sra1) (from UniProt Q7L576;Q9Y2A7;Q92558;Q9NYB9;Q8WUW1) (complex)	–	5.33
